# Measurements reported in IntAct's records for PubMed 17525332.
# B1: Origin recognition complex subunit 3 (Homo sapiens), Q9UBD5 (parent)
# chain: MATSSMSKGCFVFKPNSKKRKISLPIEDYFNKGKNEPEDSKLRFETYQLIWQQMKSENERLQEELNKNLFDNLIEFLQKSHSGFQKNSRDLGGQIKLREIPTAALVLGVNVTDHDLTFGSLTEALQNNVTPYVVSLQAKDCPDMKHFLQKLISQLMDCCVDIKSKEEESVHVTQRKTHYSMDSLSSWYMTVTQKTDPKMLSKKRTTSSQWQSPPVVVILKDMESFATKVLQDFIIISSQHLHEFPLILIFGIATSPIIIHRLLPHAVSSLLCIELFQSLSCKEHLTTVLDKLLLTTQFPFKINEKVLQVLTNIFLYHDFSVQNFIKGLQLSLLEHFYSQPLSVLCCNLPEAKRRINFLSNNQCENIRRLPSFRRYVEKQASEKQVALLTNERYLKEETQLLLENLHVYHMNYFLVLRCLHKFTSSLPKYPLGRQIRELYCTCLEKNIWDSEEYASVLQLLRMLAKDELMTILEKCFKVFKSYCENHLGSTAKRIEEFLAQFQSLDETKEEEDASGSQPKGLQKTDLYHLQKSLLEMKELRRSKKQTKFEVLRENVVNFIDCLVREYLLPPETQPLHEVVYFSAAHALREHLNAAPRIALHTALNNPYYYLKNEALKSEEGCIPNIAPDICIAYKLHLECSRLINLVDWSEAFATVVTAAEKMDANSATSEEMNEIIHARFIRAVSELELLGFIKPTKQKTDHVARLTWGGC
# B2: DNA replication complex GINS protein PSF2 (Homo sapiens), Q9Y248 (parent)
# chain: MDAAEVEFLAEKELVTIIPNFSLDKIYLIGGDLGPFNPGLPVEVPLWLAINLKQRQKCRLLPPEWMDVEKLEKMRDHERKEETFTPMPSPYYMELTKLLLNHASDNIPKADEIRTLVKDMWDTRIAKLRVSADSFVRQQEAHAKLDNLTLMEINTSGTFLTQALNHMYKLRTNLQPLESTQSQDF
# B3: Zinc finger CCHC domain-containing protein 8 (Homo sapiens), Q6NZY4 (parent)
# chain: MAAEVYFGDLELFEPFDHPEESIPKPVHTRFKDDDGDEEDENGVGDAELRERLRQCEETIEQLRAENQELKRKLNILTRPSGILVNDTKLDGPILQILFMNNAISKQYHQEIEEFVSNLVKRFEEQQKNDVEKTSFNLLPQPSSIVLEEDHKVEESCAIKNNKEAFSVVGSVLYFTNFCLDKLGQPLLNENPQLSEGWEIPKYHQVFSHIVSLEGQEIQVKAKRPKPHCFNCGSEEHQMKDCPMPRNAARISEKRKEYMDACGEANNQNFQQRYHAEEVEERFGRFKPGVISEELQDALGVTDKSLPPFIYRMRQLGYPPGWLKEAELENSGLALYDGKDGTDGETEVGEIQQNKSVTYDLSKLVNYPGFNISTPRGIPDEWRIFGSIPMQACQQKDVFANYLTSNFQAPGVKSGNKRSSSHSSPGSPKKQKNESNSAGSPADMELDSDMEVPHGSQSSESFQFQPPLPPDTPPLPRGTPPPVFTPPLPKGTPPLTPSDSPQTRTASGAVDEDALTLEELEEQQRRIWAALEQAESVNSDSDVPVDTPLTGNSVASSPCPNELDLPVPEGKTSEKQTLDEPEVPEIFTKKSEAGHASSPDSEVTSLCQKEKAELAPVNTEGALLDNGSVVPNCDISNGGSQKLFPADTSPSTATKIHSPIPDMSKFATGITPFEFENMAESTGMYLRIRSLLKNSPRNQQKNKKASE
# Variants of: B1
# Conditions: with brca1_human BRCA1, P38398
row,effect of a mutation on the interaction,Variant
1,disrupting interaction,S516A

# Variants of: B2
# Conditions: with chk2_human CHEK2, O96017
# Chain of chk2_human CHEK2, O96017 (O96017 whole entry): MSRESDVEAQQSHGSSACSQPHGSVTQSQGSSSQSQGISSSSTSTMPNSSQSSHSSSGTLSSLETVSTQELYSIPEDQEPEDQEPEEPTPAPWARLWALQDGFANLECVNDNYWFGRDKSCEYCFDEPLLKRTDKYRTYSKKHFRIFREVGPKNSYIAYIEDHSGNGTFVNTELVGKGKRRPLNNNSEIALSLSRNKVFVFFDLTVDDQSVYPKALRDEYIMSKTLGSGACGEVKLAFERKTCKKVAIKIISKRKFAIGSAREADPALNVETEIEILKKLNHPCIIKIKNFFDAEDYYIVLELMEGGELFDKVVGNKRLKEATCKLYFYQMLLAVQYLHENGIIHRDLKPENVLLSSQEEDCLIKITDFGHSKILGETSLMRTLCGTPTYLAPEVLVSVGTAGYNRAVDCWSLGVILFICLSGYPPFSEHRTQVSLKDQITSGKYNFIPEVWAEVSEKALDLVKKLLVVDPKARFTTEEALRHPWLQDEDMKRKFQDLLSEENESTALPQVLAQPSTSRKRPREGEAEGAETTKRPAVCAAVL
row,effect of a mutation on the interaction,Variant
1,disrupting interaction,MDAAEVEFLAEKELVTIIPNFSLDKIYLIGGDLGPFNPGLPVEVPLWLAINLKQRQKCRLLPPEWMDVEKLEKMRDHERKEETFTPMPSPYYMELTKLLLNHASDNIPKADEIRTLVKDMWDTRIAKLRVSADSFVRQQEAHAKLDNLTLMEINTSGTFLTQALNHMYKLRTNLQPLESAQAQDF [T180A;S182A]

# Variants of: B3
# Conditions: with brca1_human BRCA1, P38398
# Target sequence in this assay (P38398 whole entry, looked up): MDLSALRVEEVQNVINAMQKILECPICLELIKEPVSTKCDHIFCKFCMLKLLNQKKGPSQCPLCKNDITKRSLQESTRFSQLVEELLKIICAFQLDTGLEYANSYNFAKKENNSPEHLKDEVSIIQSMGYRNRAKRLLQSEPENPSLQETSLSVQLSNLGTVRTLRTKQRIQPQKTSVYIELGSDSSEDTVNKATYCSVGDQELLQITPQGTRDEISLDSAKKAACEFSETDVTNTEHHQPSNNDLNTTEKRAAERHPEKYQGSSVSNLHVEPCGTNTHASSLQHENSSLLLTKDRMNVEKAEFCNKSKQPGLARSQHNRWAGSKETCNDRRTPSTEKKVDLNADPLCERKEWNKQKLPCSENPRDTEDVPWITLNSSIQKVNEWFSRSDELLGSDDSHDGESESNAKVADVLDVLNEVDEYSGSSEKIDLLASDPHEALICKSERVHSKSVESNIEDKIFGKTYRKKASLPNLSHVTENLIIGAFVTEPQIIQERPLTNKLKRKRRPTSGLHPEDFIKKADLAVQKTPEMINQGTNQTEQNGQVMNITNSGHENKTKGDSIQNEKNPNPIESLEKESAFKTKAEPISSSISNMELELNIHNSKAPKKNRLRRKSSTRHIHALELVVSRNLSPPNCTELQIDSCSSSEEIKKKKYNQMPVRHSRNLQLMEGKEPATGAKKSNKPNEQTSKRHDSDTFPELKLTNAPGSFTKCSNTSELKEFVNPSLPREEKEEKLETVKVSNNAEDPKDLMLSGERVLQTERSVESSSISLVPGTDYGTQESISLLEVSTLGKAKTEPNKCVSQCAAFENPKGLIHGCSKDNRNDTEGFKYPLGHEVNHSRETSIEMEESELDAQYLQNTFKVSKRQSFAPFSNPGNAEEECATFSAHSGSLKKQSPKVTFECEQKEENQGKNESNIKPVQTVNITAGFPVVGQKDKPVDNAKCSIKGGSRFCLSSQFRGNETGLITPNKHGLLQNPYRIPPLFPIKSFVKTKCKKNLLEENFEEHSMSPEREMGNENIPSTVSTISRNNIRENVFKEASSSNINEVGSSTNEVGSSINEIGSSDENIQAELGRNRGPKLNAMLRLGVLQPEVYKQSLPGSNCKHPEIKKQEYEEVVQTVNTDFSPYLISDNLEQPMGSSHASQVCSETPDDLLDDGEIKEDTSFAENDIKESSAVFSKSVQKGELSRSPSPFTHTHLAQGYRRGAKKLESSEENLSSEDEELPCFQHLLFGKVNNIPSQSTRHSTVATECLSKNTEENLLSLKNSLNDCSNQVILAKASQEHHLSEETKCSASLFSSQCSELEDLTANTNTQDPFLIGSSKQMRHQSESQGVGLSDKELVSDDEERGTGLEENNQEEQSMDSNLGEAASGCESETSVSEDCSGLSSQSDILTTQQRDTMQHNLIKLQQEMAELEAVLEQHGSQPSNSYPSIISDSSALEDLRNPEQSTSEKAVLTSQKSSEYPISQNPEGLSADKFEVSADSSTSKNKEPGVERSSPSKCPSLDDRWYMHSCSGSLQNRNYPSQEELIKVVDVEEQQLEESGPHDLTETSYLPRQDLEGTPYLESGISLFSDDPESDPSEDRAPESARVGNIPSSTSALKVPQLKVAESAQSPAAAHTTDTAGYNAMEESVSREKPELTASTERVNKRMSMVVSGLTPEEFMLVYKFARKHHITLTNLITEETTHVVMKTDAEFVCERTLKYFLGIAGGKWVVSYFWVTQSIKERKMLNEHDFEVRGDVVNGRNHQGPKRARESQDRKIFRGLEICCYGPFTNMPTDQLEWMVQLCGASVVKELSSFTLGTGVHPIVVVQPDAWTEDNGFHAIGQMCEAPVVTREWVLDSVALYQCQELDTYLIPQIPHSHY
row,effect of a mutation on the interaction,Variant
1,disrupting interaction,S456A
